The results in this text go back to article PMC13311836, “Clinically observed RASA1 missense mutants exhibit diverse RasGAP protein behaviors in vitro” (The Journal of Biological Chemistry, 2026).

Where a chain is given by its changes, count along the chain named. [ ]: non-standard residue; d: D form. pY = N[C@@H](Cc1ccc(OP(=O)(O)O)cc1)C(=O)O

For assay [1], the target named is T1, RasGAP SH2-SH3-SH2 construct (residues 174 to 444), R427Q (human, UniProt P20936 174-444, C236S | C261S | C372S | C402S | R427Q).
T1 sequence: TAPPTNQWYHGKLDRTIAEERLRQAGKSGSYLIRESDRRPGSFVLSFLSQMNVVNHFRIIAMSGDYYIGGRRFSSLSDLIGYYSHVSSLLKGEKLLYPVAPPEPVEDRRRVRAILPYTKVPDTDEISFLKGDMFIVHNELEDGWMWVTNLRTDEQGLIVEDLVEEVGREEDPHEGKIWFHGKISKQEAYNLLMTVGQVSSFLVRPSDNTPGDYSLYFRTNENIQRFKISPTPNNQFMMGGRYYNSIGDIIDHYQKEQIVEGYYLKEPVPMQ
The assay can be described thus: ITC; average.

For assay [2], the target named is T2, RasGAP SH2-SH3-SH2 construct (residues 174 to 444), WT (human, UniProt P20936 174-444, C236S | C261S | C372S | C402S).
T2 sequence: T1 sequence with Q254R
The assay can be described thus: ITC; average.

For assay [3], the target named is T3, RasGAP SH2-SH3-SH2 construct (residues 174 to 444), R194C (human, UniProt P20936 174-444, R194C | C236S | C261S | C372S | C402S).
T3 sequence: T1 sequence with R21C, Q254R
As to the kind of experiment: ITC; average. Background: In ITC the heat of successive injections is recorded.

Assay [4] addresses T2, RasGAP SH2-SH3-SH2 construct (residues …). The assay can be described thus: ITC; replicate, Figure S7 panel A.
The target is the same in assay [5]. As to the kind of experiment: ITC; replicate, Figure S7 panel B.
In assay [6] the target is T3, RasGAP SH2-SH3-SH2 construct (residues …). As to the kind of experiment: ITC; replicate, Figure S7 panel C.
For assay [7] the target is unchanged. As to the kind of experiment: ITC; replicate, Figure S7 panel D.
Assay [8] has the same target. The assay can be described thus: ITC; replicate, Figure S7 panel E.
Assay [9] concerns the target T1, RasGAP SH2-SH3-SH2 construct (residues …). The assay can be described thus: ITC; replicate, Figure S7 panel F.
Assay [10] has the same target. The assay can be described thus: ITC; replicate, Figure S7 panel G.
Assay [11] has as its target T4, RasGAP SH2-SH3-SH2 construct (residues 174 to 444), WT (human, UniProt P20936 174-444, C236S | C261S | C372S | C402S).
T4 construct: also called p120RasGAP SH2-SH3-SH2; RASA1; source: E. coli Rosetta (DE3), purified (Ni-NTA, TEV cleavage, anion exchange, SEC); not shown: His6, N-terminal, cleaved
T4 sequence (looked up): T1 sequence with Q254R
As to the kind of experiment: ITC; about 25 μM peptide in the syringe titrated into about 5 μM RasGAP SH2-SH3-SH2 in the cell; 25 °C; 250 mM NaCl, 20 mM Tris pH 8, 1 mM TCEP; Independent model. The note with it: both partners purified.

Assay [12] has as its target T5, RasGAP SH2-SH3-SH2 construct (residues 174 to 444), R194C (human, UniProt P20936 174-444, R194C | C236S | C261S | C372S | C402S).
T5 construct: human RasGAP (p120RasGAP, RASA1), UniProt P20936, residues 174-444, with C236S, C261S, C372S, C402S and the cancer-associated N-SH2 mutation R194C; also called p120RasGAP SH2-SH3-SH2 R194C; source: E. coli Rosetta (DE3), purified (Ni-NTA, TEV cleavage, anion exchange, SEC); not shown: His6, N-terminal, cleaved
T5 sequence (looked up): T1 sequence with R21C, Q254R
Described as above. The note with it: both partners purified.

Assay [13] addresses T6, RasGAP SH2-SH3-SH2 construct (residues 174 to 444), R427Q (human, UniProt P20936 174-444, C236S | C261S | C372S | C402S | R427Q).
T6 construct: human RasGAP (p120RasGAP, RASA1), UniProt P20936, residues 174-444, with C236S, C261S, C372S, C402S and the cancer-associated C-SH2 mutation R427Q; also called p120RasGAP SH2-SH3-SH2 R427Q; source: E. coli Rosetta (DE3), purified (Ni-NTA, TEV cleavage, anion exchange, SEC); not shown: His6, N-terminal, cleaved
T6 sequence (looked up): T1 sequence
The description is as above. The note with it: both partners purified.

B1: p190RhoGAP phosphopeptide, residues 1083 to 1111 (pY1087, pY1105) (peptide)
peptide: Ac-DPSD[pY]AEPMDAVVKPRNEEENI[pY]SVPHDS-NH2
notes: p190RhoGAP (ARHGAP35), UniProt Q9NRY4, residues 1083-1111, 29 amino acids; also called p190RhoGAP peptide; ARHGAP35 peptide; source: synthetic peptide, bought: GenScript
In general, Kd refers to the constant that tells how readily two partners part at equilibrium. High values mean lower affinity, low ones higher affinity. As to B1, the equilibrium dissociation constant (Kd) in assay [1] worked out at 5.11 nM; in [2] it was 5.04 nM; in [3], 4.03 nM; in [4], 6.49 nM; in assay [5] it was 3.59 nM; in assay [6], 3.65 nM. In addition, the dissociation constant Kd in assay [7] is 7.23 nM; in assay [8] it was 1.2 nM; in assay [9] it was 8.14 nM; in assay [10], 2.08 nM. For the same molecule, the binding result in assay [11], in [12] and in [13] was “binds” throughout.
